{"source": "paper PMC10786891", "about": "“Massively parallel profiling of RNA-targeting CRISPR-Cas13d”"}
{"target": "T1, EsCas13d, nuclease-dead (Eubacterium siraeum, UniProt B0MS50, R295A;H300A;R849A;H854A)", "T1 sequence": "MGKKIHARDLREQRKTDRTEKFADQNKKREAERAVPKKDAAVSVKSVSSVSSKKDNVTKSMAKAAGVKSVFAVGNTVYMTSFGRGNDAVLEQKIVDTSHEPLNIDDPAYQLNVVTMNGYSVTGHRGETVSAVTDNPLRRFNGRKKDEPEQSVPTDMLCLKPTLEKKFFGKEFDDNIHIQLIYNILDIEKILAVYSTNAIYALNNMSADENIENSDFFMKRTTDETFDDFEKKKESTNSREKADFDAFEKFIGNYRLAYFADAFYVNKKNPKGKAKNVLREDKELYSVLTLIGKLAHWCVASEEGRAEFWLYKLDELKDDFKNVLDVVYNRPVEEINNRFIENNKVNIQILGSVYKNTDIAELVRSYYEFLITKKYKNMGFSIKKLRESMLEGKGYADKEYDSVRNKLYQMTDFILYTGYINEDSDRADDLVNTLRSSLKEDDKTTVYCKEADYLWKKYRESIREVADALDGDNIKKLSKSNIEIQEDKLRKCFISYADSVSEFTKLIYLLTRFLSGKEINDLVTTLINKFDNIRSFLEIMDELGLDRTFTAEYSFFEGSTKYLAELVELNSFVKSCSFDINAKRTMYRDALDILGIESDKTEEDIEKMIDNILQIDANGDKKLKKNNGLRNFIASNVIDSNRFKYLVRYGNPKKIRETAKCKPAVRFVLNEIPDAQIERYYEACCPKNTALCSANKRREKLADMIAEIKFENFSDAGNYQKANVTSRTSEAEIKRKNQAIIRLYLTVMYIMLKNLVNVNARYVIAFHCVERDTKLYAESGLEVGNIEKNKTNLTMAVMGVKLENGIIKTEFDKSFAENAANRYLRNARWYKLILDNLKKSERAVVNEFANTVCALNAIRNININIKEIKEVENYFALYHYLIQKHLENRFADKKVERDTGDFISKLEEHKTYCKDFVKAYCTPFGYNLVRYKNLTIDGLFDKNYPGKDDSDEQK", "assay": "crRNA (strand 1, pre-loaded); Mg2+; 40 mM Tris-HCl pH 7.5, 150 mM NaCl, 6 mM MgCl2, 1 mM DTT, 0.1% Tween-20, 0.2 mg/ml BSA; 25 C; 10 min per concentration, then washed", "settings": "tags: His6-TwinStrep-SUMO cleaved; N-terminal SNAP kept (SNAP-Surface 488); label: 3' end held by stalled T7 RNA polymerase", "units": {"Kd": "nM"}}
{"binder": "target 1 C4A,A16G (mixed) RNA 1: CACCCGUGCAAAAAUGCAGGGGUCUAAAACUGAGCGGAUAACCUCUCUAUGG RNA 2: GGGAAUGGAUCCACAUCUACGAAUUCGUACCAUAGGGAGGUUAUCCGAUCACCGAGAUCGGAAGAGCACACGU", "Kd": "17.2 ± 1.5"}
{"binder": "target 1 A9G,A20U (mixed) RNA 1: CACCCGUGCAAAAAUGCAGGGGUCUAAAACUGAGCGGAUAACCUCUCUAUGG RNA 2: GGGAAUGGAUCCACAUCUACGAAUUCGUACCUUAGAGAGGUUGUCCGCUCACCGAGAUCGGAAGAGCACACGU", "Kd": "48 ± 8"}
{"binder": "target 1 C6G,G12A (mixed) RNA 1: CACCCGUGCAAAAAUGCAGGGGUCUAAAACUGAGCGGAUAACCUCUCUAUGG RNA 2: GGGAAUGGAUCCACAUCUACGAAUUCGUACCAUAGAGAGAUUAUCGGCUCACCGAGAUCGGAAGAGCACACGU", "Kd": "10.8 ± 0.7"}
{"binder": "target 1 G15A,G17C (mixed) RNA 1: CACCCGUGCAAAAAUGCAGGGGUCUAAAACUGAGCGGAUAACCUCUCUAUGG RNA 2: GGGAAUGGAUCCACAUCUACGAAUUCGUACCAUACAAAGGUUAUCCGCUCACCGAGAUCGGAAGAGCACACGU", "Kd": "62 ± 16"}
{"binder": "target 1 insC 3' of 17,insA 3' of 13 (mixed) RNA 1: CACCCGUGCAAAAAUGCAGGGGUCUAAAACUGAGCGGAUAACCUCUCUAUGG RNA 2: GGGAAUGGAUCCACAUCUACGAAUUCGUACCAUAGCAGAGAGUUAUCCGCUCACCGAGAUCGGAAGAGCACACGU", "Kd": "22.3 ± 2.4"}
{"binder": "target 1 insC 3' of 22,insA 3' of 3 (mixed) RNA 1: CACCCGUGCAAAAAUGCAGGGGUCUAAAACUGAGCGGAUAACCUCUCUAUGG RNA 2: GGGAAUGGAUCCACAUCUACGAAUUCGUACCCAUAGAGAGGUUAUCCGCUACACCGAGAUCGGAAGAGCACACGU", "Kd": "11.8 ± 0.5"}
{"binder": "target 1 insC 3' of 9,insC 3' of 3 (mixed) RNA 1: CACCCGUGCAAAAAUGCAGGGGUCUAAAACUGAGCGGAUAACCUCUCUAUGG RNA 2: GGGAAUGGAUCCACAUCUACGAAUUCGUACCAUAGAGAGGUUACUCCGCUCCACCGAGAUCGGAAGAGCACACGU", "Kd": "11 ± 1"}
{"binder": "target 1 U3A,A9G (mixed) RNA 1: CACCCGUGCAAAAAUGCAGGGGUCUAAAACUGAGCGGAUAACCUCUCUAUGG RNA 2: GGGAAUGGAUCCACAUCUACGAAUUCGUACCAUAGAGAGGUUGUCCGCACACCGAGAUCGGAAGAGCACACGU", "Kd": "7.34 ± 0.29"}
{"binder": "target 1 del5,del9 (mixed) RNA 1: CACCCGUGCAAAAAUGCAGGGGUCUAAAACUGAGCGGAUAACCUCUCUAUGG RNA 2: GGGAAUGGAUCCACAUCUACGAAUUCGUACCAUAGAGAGGUUUCCCUCACCGAGAUCGGAAGAGCACACGU", "Kd": "15.9 ± 0.6"}
{"binder": "target 1 A9G,U11A (mixed) RNA 1: CACCCGUGCAAAAAUGCAGGGGUCUAAAACUGAGCGGAUAACCUCUCUAUGG RNA 2: GGGAAUGGAUCCACAUCUACGAAUUCGUACCAUAGAGAGGAUGUCCGCUCACCGAGAUCGGAAGAGCACACGU", "Kd": "42.7 ± 3.1"}
{"binder": "target 1 insG 3' of 21,insA 3' of 5 (mixed) RNA 1: CACCCGUGCAAAAAUGCAGGGGUCUAAAACUGAGCGGAUAACCUCUCUAUGG RNA 2: GGGAAUGGAUCCACAUCUACGAAUUCGUACCGAUAGAGAGGUUAUCCGACUCACCGAGAUCGGAAGAGCACACGU", "Kd": "37 ± 9"}
{"binder": "target 1 insC 3' of 10,insC 3' of 5 (mixed) RNA 1: CACCCGUGCAAAAAUGCAGGGGUCUAAAACUGAGCGGAUAACCUCUCUAUGG RNA 2: GGGAAUGGAUCCACAUCUACGAAUUCGUACCAUAGAGAGGUUCAUCCGCCUCACCGAGAUCGGAAGAGCACACGU", "Kd": "11.1 ± 1.1"}
{"binder": "target 1 insU 3' of 6,insA 3' of 5 (mixed) RNA 1: CACCCGUGCAAAAAUGCAGGGGUCUAAAACUGAGCGGAUAACCUCUCUAUGG RNA 2: GGGAAUGGAUCCACAUCUACGAAUUCGUACCAUAGAGAGGUUAUCCUGACUCACCGAGAUCGGAAGAGCACACGU", "Kd": "24 ± 2"}
{"binder": "target 1 insA 3' of 21,insC 3' of 3 (mixed) RNA 1: CACCCGUGCAAAAAUGCAGGGGUCUAAAACUGAGCGGAUAACCUCUCUAUGG RNA 2: GGGAAUGGAUCCACAUCUACGAAUUCGUACCAAUAGAGAGGUUAUCCGCUCCACCGAGAUCGGAAGAGCACACGU", "Kd": "13.2 ± 0.7"}
{"binder": "target 1 del8,del13 (mixed) RNA 1: CACCCGUGCAAAAAUGCAGGGGUCUAAAACUGAGCGGAUAACCUCUCUAUGG RNA 2: GGGAAUGGAUCCACAUCUACGAAUUCGUACCAUAGAGAGUUACCGCUCACCGAGAUCGGAAGAGCACACGU", "Kd": "16.1 ± 0.8"}
{"binder": "target 1 C2G,U11G (mixed) RNA 1: CACCCGUGCAAAAAUGCAGGGGUCUAAAACUGAGCGGAUAACCUCUCUAUGG RNA 2: GGGAAUGGAUCCACAUCUACGAAUUCGUACCAUAGAGAGGGUAUCCGCUGACCGAGAUCGGAAGAGCACACGU", "Kd": "11 ± 0.6"}
{"binder": "target 1 insG 3' of 16,insU 3' of 7 (mixed) RNA 1: CACCCGUGCAAAAAUGCAGGGGUCUAAAACUGAGCGGAUAACCUCUCUAUGG RNA 2: GGGAAUGGAUCCACAUCUACGAAUUCGUACCAUAGAGGAGGUUAUCUCGCUCACCGAGAUCGGAAGAGCACACGU", "Kd": "22.8 ± 1.8"}
{"binder": "target 1 C2G,C6U (mixed) RNA 1: CACCCGUGCAAAAAUGCAGGGGUCUAAAACUGAGCGGAUAACCUCUCUAUGG RNA 2: GGGAAUGGAUCCACAUCUACGAAUUCGUACCAUAGAGAGGUUAUCUGCUGACCGAGAUCGGAAGAGCACACGU", "Kd": "4.97 ± 0.22"}
{"binder": "target 1 insU 3' of 20,insG 3' of 2 (mixed) RNA 1: CACCCGUGCAAAAAUGCAGGGGUCUAAAACUGAGCGGAUAACCUCUCUAUGG RNA 2: GGGAAUGGAUCCACAUCUACGAAUUCGUACCAUUAGAGAGGUUAUCCGCUCGACCGAGAUCGGAAGAGCACACGU", "Kd": "11.7 ± 0.5"}
{"binder": "target 1 G5U,G17C (mixed) RNA 1: CACCCGUGCAAAAAUGCAGGGGUCUAAAACUGAGCGGAUAACCUCUCUAUGG RNA 2: GGGAAUGGAUCCACAUCUACGAAUUCGUACCAUACAGAGGUUAUCCUCUCACCGAGAUCGGAAGAGCACACGU", "Kd": "80 ± 40"}
{"binder": "target 1 A16C,G17A (mixed) RNA 1: CACCCGUGCAAAAAUGCAGGGGUCUAAAACUGAGCGGAUAACCUCUCUAUGG RNA 2: GGGAAUGGAUCCACAUCUACGAAUUCGUACCAUAACGAGGUUAUCCGCUCACCGAGAUCGGAAGAGCACACGU", "Kd": "52 ± 4"}
{"binder": "target 1 complement block 2-4 (mixed) RNA 1: CACCCGUGCAAAAAUGCAGGGGUCUAAAACUGAGCGGAUAACCUCUCUAUGG RNA 2: GGGAAUGGAUCCACAUCUACGAAUUCGUACCAUAGAGAGGUUAUCCGGAGACCGAGAUCGGAAGAGCACACGU", "Kd": "11 ± 0.5"}
{"binder": "target 1 A1U,A16G (mixed) RNA 1: CACCCGUGCAAAAAUGCAGGGGUCUAAAACUGAGCGGAUAACCUCUCUAUGG RNA 2: GGGAAUGGAUCCACAUCUACGAAUUCGUACCAUAGGGAGGUUAUCCGCUCUCCGAGAUCGGAAGAGCACACGU", "Kd": "33 ± 7"}
{"binder": "target 1 insG 3' of 16,insC 3' of 13 (mixed) RNA 1: CACCCGUGCAAAAAUGCAGGGGUCUAAAACUGAGCGGAUAACCUCUCUAUGG RNA 2: GGGAAUGGAUCCACAUCUACGAAUUCGUACCAUAGAGGAGCGUUAUCCGCUCACCGAGAUCGGAAGAGCACACGU", "Kd": "34 ± 4"}
{"binder": "target 1 C2U,G5U (mixed) RNA 1: CACCCGUGCAAAAAUGCAGGGGUCUAAAACUGAGCGGAUAACCUCUCUAUGG RNA 2: GGGAAUGGAUCCACAUCUACGAAUUCGUACCAUAGAGAGGUUAUCCUCUUACCGAGAUCGGAAGAGCACACGU", "Kd": "23.2 ± 1"}
{"binder": "target 1 complement block 1-4 (mixed) RNA 1: CACCCGUGCAAAAAUGCAGGGGUCUAAAACUGAGCGGAUAACCUCUCUAUGG RNA 2: GGGAAUGGAUCCACAUCUACGAAUUCGUACCAUAGAGAGGUUAUCCGGAGUCCGAGAUCGGAAGAGCACACGU", "Kd": "5.46 ± 0.29"}
{"binder": "target 1 insG 3' of 22,insC 3' of 17 (mixed) RNA 1: CACCCGUGCAAAAAUGCAGGGGUCUAAAACUGAGCGGAUAACCUCUCUAUGG RNA 2: GGGAAUGGAUCCACAUCUACGAAUUCGUACGCAUAGCAGAGGUUAUCCGCUCACCGAGAUCGGAAGAGCACACGU", "Kd": "~70"}
{"binder": "target 1 insG 3' of 18,insU 3' of 7 (mixed) RNA 1: CACCCGUGCAAAAAUGCAGGGGUCUAAAACUGAGCGGAUAACCUCUCUAUGG RNA 2: GGGAAUGGAUCCACAUCUACGAAUUCGUACCAUAGGAGAGGUUAUCUCGCUCACCGAGAUCGGAAGAGCACACGU", "Kd": "67 ± 8"}
